Reference: article PMC3279363
“And” between values parts separate entries of the source, which are not always exact repeats. Identical values can stand only once.

Biological target: T1, nitrated major birch pollen allergen Bet v 1.0101 (Betula verrucosa), P15494
T1 chain: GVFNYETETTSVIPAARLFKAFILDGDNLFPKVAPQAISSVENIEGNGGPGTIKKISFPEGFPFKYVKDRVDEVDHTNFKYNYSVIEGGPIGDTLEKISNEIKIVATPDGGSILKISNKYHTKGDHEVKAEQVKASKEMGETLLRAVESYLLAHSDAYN
Assay: SEC + other: Western blot; data not shown; high performance size exclusion chromatography and Western blot analysis of Bet v 1 nitro
Conditions: remark: other sources report otherwise

B1: nitrated major birch pollen allergen Bet v 1.0101, P15494 2-160 (natural protein)
chain: GVFNYETETTSVIPAARLFKAFILDGDNLFPKVAPQAISSVENIEGNGGPGTIKKISFPEGFPFKYVKDRVDEVDHTNFKYNYSVIEGGPIGDTLEKISNEIKIVATPDGGSILKISNKYHTKGDHEVKAEQVKASKEMGETLLRAVESYLLAHSDAYN
modifications: here or on the partner: nitrotyrosine: 58.1% of all tyrosine groups within one protein molecule were nitrated (tetranitromethane); all tyrosine residues nitrated to some extent; nitrotyrosine: 58.1% of all tyrosine groups within one protein molecule were nitrated (tetranitromethane); all tyrosine residues nitrated to some extent
B1 was tested, and the stoichiometry N was 2 and 3.
